Source: PMC3492304, “Characterization of Arabidopsis FPS Isozymes and FPS Gene Expression Analysis Provide Insight into the Biosynthesis of Isoprenoid Precursors in Seeds” (PLoS ONE, 2012)

Tests used:
[1] = biological target: T1, FPS2 (Arabidopsis thaliana, UniProt Q43315); assay: radiometric [[…]-14C]IPP incorporation, acid hydrolysis and hexane extraction; type: biochemical; conditions: product inhibition; FPP 0 to 1 mM; PIPES pH 7.0, 37°C
T1 construct: full length, 342 residues; cDNA pcNC2; GST fusion in E. coli BL21(DE3), GST removed with Factor Xa leaving no extra residues; homodimer
T1 sequence (Q43315 1-342): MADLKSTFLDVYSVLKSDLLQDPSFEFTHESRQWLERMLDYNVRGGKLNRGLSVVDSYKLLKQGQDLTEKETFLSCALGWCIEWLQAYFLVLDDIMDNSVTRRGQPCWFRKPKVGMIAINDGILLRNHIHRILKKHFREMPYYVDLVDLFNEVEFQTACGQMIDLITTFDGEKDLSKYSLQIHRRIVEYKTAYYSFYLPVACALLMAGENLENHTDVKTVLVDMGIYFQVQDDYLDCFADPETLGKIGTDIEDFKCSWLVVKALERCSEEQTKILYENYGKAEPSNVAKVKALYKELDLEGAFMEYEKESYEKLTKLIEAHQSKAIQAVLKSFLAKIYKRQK

[2] = biological target: T2, FPS1S (Arabidopsis thaliana, UniProt Q09152); assay: as above; type: biochemical; conditions: product inhibition; FPP 0 to 1 mM; PIPES pH 7.0, 37°C
T2 construct: gene FPS1; short isoform, 343 residues, lacking the 41-residue N-terminal extension of FPS1L; cDNA pcNC3; GST fusion in E. coli BL21(DE3), GST removed with Factor Xa leaving no extra residues; homodimer
T2 sequence (Q09152 1-343 isoform Q09152-2): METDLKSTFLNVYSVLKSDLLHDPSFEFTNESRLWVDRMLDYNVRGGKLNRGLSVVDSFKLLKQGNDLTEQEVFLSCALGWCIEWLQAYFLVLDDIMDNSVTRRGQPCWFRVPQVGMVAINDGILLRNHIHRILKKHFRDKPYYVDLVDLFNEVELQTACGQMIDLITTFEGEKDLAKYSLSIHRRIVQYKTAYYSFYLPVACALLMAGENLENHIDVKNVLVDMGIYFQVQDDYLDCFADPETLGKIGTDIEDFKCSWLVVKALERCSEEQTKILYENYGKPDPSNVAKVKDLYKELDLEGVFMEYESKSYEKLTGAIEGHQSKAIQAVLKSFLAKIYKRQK

[3] = substrate: CC(C)=CCC/C(C)=C/COP(=O)(O)OP(=O)(O)O; assay: purified protein; type: biochemical, Arabidopsis thaliana; conditions: 100 µM IPP, 4 mM MgCl2, PIPES pH 7.0, 37°C, apparent Km, kcat per dimer
[4] = substrate: CC(C)=CCOP(=O)(O)OP(=O)(O)O; assay: purified protein; type: biochemical, Arabidopsis thaliana; conditions: 100 µM IPP, 4 mM MgCl2, PIPES pH 7.0, 37°C, apparent Km, kcat per dimer
[5] = substrate: C=C(C)CCO[P@@](=O)(O)OP(=O)(O)O; assay: purified protein; conditions: 200 µM DMAPP, 4 mM MgCl2, PIPES pH 7.0, 37°C, labelled compound, apparent Km, kcat per dimer

CC(C)=CCC/C(C)=C/CC/C(C)=C/COP(=O)(O)OP(=O)(O)O [FPP] was tested. Which “% reduction of activity at 1 mM” value [1] did it give?
The value was ~ 30%.

And the “% reduction of activity at 1 mM” value [2]?
Its value is ~ 30%.

B1: FPS2 (Arabidopsis thaliana) (protein)
chain: T1 sequence (Q43315 1-342)
notes: full length, 342 residues; cDNA pcNC2; GST fusion in E. coli BL21(DE3), GST removed with Factor Xa leaving no extra residues; homodimer
Which results are given for B1?
Km [3]: 11.3 ± 1.0 µM; kcat [3]: 2.21 s⁻¹; kcat/Km [3]: 195000 M⁻¹ s⁻¹; Km [4]: 31.5 ± 0.5 µM; kcat [4]: 3.29 s⁻¹; kcat/Km [4]: 103000 M⁻¹ s⁻¹; Km [5]: 31.3 ± 0.5 µM; kcat [5]: 4.48 s⁻¹; kcat/Km [5]: 143000 M⁻¹ s⁻¹

B2: FPS1S (Arabidopsis thaliana) (protein)
chain: T2 sequence (Q09152 1-343 isoform Q09152-2)
notes: short isoform, 343 residues, lacking the 41-residue N-terminal extension of FPS1L; cDNA pcNC3; GST fusion in E. coli BL21(DE3), GST removed with Factor Xa leaving no extra residues; homodimer
For B2, which Km [3] is on record?
Its Km is 8.3 ± 1.2 µM.

And the kcat [3]?
Its kcat is 0.607 s⁻¹.

What about the kcat/Km [3] of the same molecule?
The kcat/Km was 73300 M⁻¹ s⁻¹.

What about the Km [4] of the same molecule?
Its Km is 22.7 ± 2.1 µM.

What about the kcat [4] of the same molecule?
Its kcat is 0.87 s⁻¹.

And the kcat/Km [4]?
Its kcat/Km is 38300 M⁻¹ s⁻¹.

And the Km [5]?
Its Km is 23.1 ± 0.4 µM.

And the kcat [5]?
The kcat was 1.04 s⁻¹.

And the kcat/Km [5]?
The kcat/Km was 45000 M⁻¹ s⁻¹.
